The target in experiment [1] is T1, Full-length cynomolgus monkey TIGIT on CHO-K1 cells (CHO-K1 cynomolgus monkey TIGIT) (cynomolgus monkey).
T1 construct: NCBI XP_015300911.1
The experiment in a line: cell binding, CHO-K1 cynomolgus monkey TIGIT. As to the method:
The collected cells were washed once with PBS (Hyclone, CAT #SH30256), resuspended to 2×10⁵/50 μL with 1% BSA-PBS. The antibodies were diluted to 80 nM with 1% BSA-PBS (diluted by 3-fold serial dilution for 12 concentration points). The 50 μL cells were then mixed with 50 μL diluted antibodies, and then incubated at 4° C. for 60 minutes. […] After washing twice with PBS, the cell samples were resuspended with 1% BSA-PBS, 100 μL/well and then analyzed by flow cytometry (BD, Canto II). […] [0298] (c) The effect of anti-TIGIT chimeric antibodies blocking the interaction between Bio-CD155-His and CHO-K1 human TIGIT high expression cell strains detected by FACS
The affinity of the above humanized antibodies with human TIGIT ECD-His is detected by BIAcore, and with reference to the methods of Example 4 (a), (b), and (d), the binding activity of the above humanized antibodies to human TIGIT ECD-mFc, CHO-K1 human TIGIT, CHO-K1 cynomolgus monkey TIGIT and cynomolgus monkey TIGIT ECD-mFc, and the effect of the humanized antibodies blocking the binding between human TIGIT ECD-mFc and CHO-K1 CD155 are detected, the results are shown in Table 18.

In experiment [2] the target is T2, Full-length human TIGIT on CHO-K1 cells (CHO-K1 human TIGIT) (human, UniProt Q495A1 22-244).
T2 construct: NCBI XP_024309156.1; the entry includes the signal peptide (limits not recoverable); The strain (high, medium, low) is named under assay; also called high expression strain 1D2; medium expression strain 2D10
T2 sequence: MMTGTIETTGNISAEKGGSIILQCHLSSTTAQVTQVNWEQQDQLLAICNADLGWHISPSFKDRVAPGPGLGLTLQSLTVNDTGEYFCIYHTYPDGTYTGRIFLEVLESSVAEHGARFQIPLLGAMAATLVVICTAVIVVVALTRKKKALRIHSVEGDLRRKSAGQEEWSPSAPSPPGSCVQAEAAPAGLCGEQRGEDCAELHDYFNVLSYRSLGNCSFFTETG
Put plainly: cell binding, CHO-K1 human TIGIT high expression strain. The method in brief: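 Binding was measured by flow cytometry after a 60-minute, 4° C incubation of the antibodies with 2×10⁵ CHO-K1 cells displaying full-length human or cynomolgus monkey TIGIT. Antibody titration: 12 points, threefold serial dilution from 80 nM, in 1% BSA-PBS.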

In experiment [3] the target is T3, Fusion protein of extracellular domain of human TIGIT and His-tag (human TIGIT ECD-his) (human).
T3 chain: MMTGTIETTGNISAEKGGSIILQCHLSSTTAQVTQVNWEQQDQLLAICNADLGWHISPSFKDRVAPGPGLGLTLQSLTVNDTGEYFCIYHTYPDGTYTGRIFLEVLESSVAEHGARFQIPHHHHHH
The experiment in a line: BIAcore.

Experiment [4] concerns the target T3, Fusion protein of extracellular domain …. Put plainly: BIAcore; KD ratio to TIGIT-CHI-006. For orientation: In SPR one partner is held on a chip, and binding of the other changes the refractive index at the surface.
Experiment [5] concerns the target T4, Fusion protein of extracellular domain of human TIGIT and human IgG1 Fc fragment (human TIGIT ECD-hFc) (human).
T4 construct: The entry includes the signal peptide (limits not recoverable) and the human IgG1 Fc
The experiment in a line: blocking of TIGIT ECD-hFc binding to CHO-K1 CD155 cells. The method in brief:
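The inhibition curves from which IC50 was calculated were generated by cell-based ELISA. Fixed CHO-K1 CD155 cells, blocked with 5% skim milk-PBS, were incubated at 37° C for 1.5-2 h with antibodies that had been premixed for 0.5 h with human TIGIT ECD-hFc at a working concentration of 30 ng/mL. Detection of bound TIGIT used HRP secondary antibody at 1:5000 for 1 h at 37° C, followed by TMB and reading as OD450 nm.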

Experiment [6] addresses T5, Fusion protein of extracellular domain of cynomolgus monkey TIGIT and mouse IgG2a Fc fragment (cynomolgus … (cynomolgus monkey)).
T5 construct: The entry includes the signal peptide (limits not recoverable) and the mouse IgG2a Fc
The experiment in a line: ELISA, cynomolgus monkey TIGIT ECD-mFc. The method in brief:
(§1)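 Plates blocked with 5% skim milk-PBS at 37° C for 2-4 h. Test antibodies applied as a 12-point 3-fold series from 13 nM for 1.5-2 h at 37° C. Read-out: HRP secondary (1:5000, 1 h, 37° C), TMB colour for 7-10 min at room temperature, acid stop, absorbance at OD450 nm.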
(In general: An ELISA detects its analyte on a solid surface through an enzyme-linked reagent.)

Experiment [7] deals with T6, Fusion protein of extracellular domain of human TIGIT and mouse IgG2a Fc fragment (human TIGIT ECD-mFc) (human).
T6 construct: The entry includes the signal peptide (limits not recoverable) and the mouse IgG2a Fc
T6 chain: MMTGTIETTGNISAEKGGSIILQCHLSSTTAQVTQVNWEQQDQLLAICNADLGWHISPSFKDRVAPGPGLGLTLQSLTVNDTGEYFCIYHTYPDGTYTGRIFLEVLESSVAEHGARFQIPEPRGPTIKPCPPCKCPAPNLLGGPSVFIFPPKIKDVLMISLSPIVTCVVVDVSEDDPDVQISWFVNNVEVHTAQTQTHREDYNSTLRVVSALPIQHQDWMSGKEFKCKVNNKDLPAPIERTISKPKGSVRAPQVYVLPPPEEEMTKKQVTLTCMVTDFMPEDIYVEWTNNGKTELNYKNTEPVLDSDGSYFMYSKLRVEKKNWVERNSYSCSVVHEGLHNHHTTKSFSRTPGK
The experiment in a line: ELISA, human TIGIT ECD-mFc. The method in brief:
as §1

T4 sequence (chain, as listed by the source limits assumed): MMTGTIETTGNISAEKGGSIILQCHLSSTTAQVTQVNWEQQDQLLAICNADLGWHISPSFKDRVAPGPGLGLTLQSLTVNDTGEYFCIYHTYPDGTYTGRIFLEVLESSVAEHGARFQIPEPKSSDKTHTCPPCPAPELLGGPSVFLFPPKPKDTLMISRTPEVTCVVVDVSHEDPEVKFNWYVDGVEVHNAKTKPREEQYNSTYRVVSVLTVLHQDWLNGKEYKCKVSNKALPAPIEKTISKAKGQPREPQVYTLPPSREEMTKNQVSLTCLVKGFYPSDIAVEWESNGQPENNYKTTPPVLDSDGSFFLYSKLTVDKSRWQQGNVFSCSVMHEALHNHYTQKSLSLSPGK
T1 sequence (chain, as listed by the source limits assumed): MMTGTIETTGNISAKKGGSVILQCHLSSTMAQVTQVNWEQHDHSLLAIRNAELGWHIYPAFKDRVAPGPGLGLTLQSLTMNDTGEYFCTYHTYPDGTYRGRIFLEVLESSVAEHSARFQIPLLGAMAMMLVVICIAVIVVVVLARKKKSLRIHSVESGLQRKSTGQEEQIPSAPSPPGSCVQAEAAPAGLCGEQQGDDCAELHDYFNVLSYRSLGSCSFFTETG

B1: TIGIT-006-H5L2 (antibody, V domains shown)
VH: EVQLQESGPGLVKPSETLSLTCAVSGYSMTSDYWNWIRQPPGKKLEYIGYISYSGRTYYNPSLKSRVTISRDTSKNQFSLKLSSVTAADTAVYYCARGDYSNYGGAMYDWGQGTTVTVSS
VL: DIVMTQTPLSLSVTPGQPASISCRASQGVSTTIAWYQQKPGQSPKLLIYSASYRYTGVPDRFSGSGSGTDFTLKISRVEAEDVGVYYCQQYYSSPFTFGGGTKVEIK
notes: Humanized anti-TIGIT antibody
Broadly, the EC50 is the concentration needed to bring the measured effect to its halfway point. The term Kd denotes the constant that tells how readily two partners part at equilibrium. In general, koff refers to the first-order rate constant of dissociation. As a reminder, the kon is the rate constant with which the complex forms. As usually defined, the IC50 is the concentration that gives 50% inhibition. Consider B1, for which the 50% effective concentration (EC50) in experiment [1] was found to be 0.0849 nM; in experiment [2] it was 0.0239 nM; in experiment [6] it was 0.0172 nM; in experiment [7], 0.0111 nM. Moreover, binding in experiment [3] was characterised by a dissociation constant (Kd) of 0.08 nM. The dissociation rate constant (koff) in experiment [3] is 0.000184 s⁻¹. In experiment [3], this molecule returned a kon of 2.3e+06 M⁻¹ s⁻¹. The “Fold change vs chimeric antibodies (KD)” value in experiment [4] turned out to be 1.03 fold. In experiment [5], this molecule showed an IC50 of 0.576 nM.

B2: TIGIT-006-H2L3 (antibody, V domains shown)
VH: EVQLQESGPGLVKPSETLSLTCAVSGYSMTSDYWNWIRQPPGKGLEWIGYISYSGRTYYNPSLKSRVTISRDTSKNQFSLKLSSVTAADTAVYYCARGDYSNYGGAMYDWGQGTTVTVSS
VL: DIVMTQSPDSLAVSLGERATINCRASQGVSTTIAWYQQKPGQSPKLLIYSASYRYTGVPRFSGSGSGTDFTLTISSLQAEDVAVYYCQQYYSSPFTFGGGTKVEIK
notes: Humanized anti-TIGIT antibody
Consider B2, for which the 50% effective concentration (EC50) stood at 0.255 nM in experiment [1], 0.0353 nM in experiment [2], 24.4 nM in experiment [6] and 0.0103 nM in experiment [7]. The Kd in experiment [3] stood at 0.515 nM. In experiment [3], this molecule yielded a koff of 0.000216 s⁻¹. The molecule also gave an association rate constant (kon) in experiment [3] of 420000 M⁻¹ s⁻¹. Moreover, in experiment [4], the “Fold change vs chimeric antibodies (KD)” value stood at 6.65 fold. The molecule also came in with a 50% inhibitory concentration (IC50) in experiment [5] of 0.633 nM.

B3: TIGIT-006-H1L3 (antibody, V domains shown)
VH: EVQLQESGPGLVKPSETLSLTCAVSGYSITSDYWNWIRQPPGKGLEWIGYISYSGRTYYNPSLKSRVTISRDTSKNQFSLKLSSVTAADTAVYYCARGDYSNYGGAMYDWGQGTTVTVSS
VL: DIVMTQSPDSLAVSLGERATINCRASQGVSTTIAWYQQKPGQSPKLLIYSASYRYTGVPRFSGSGSGTDFTLTISSLQAEDVAVYYCQQYYSSPFTFGGGTKVEIK
notes: Humanized anti-TIGIT antibody
Turning to B3, the binding result in experiment [1] is recorded as “no binding”. In experiment [2], a half-maximal effect (EC50) was put at 0.0596 nM. In experiment [3], this molecule displayed a dissociation constant Kd of 2.66 nM, a koff of 0.000384 s⁻¹ and a kon of 144000 M⁻¹ s⁻¹. Moreover, in experiment [4], the “Fold change vs chimeric antibodies (KD)” value amounted to 34.4 fold. The molecule also yielded a concentration for half-maximal inhibition (IC50) in experiment [5] of 1.23 nM. Moreover, the binding result in experiment [6] is listed as “no binding”. In experiment [7], the 50% effective concentration (EC50) came to 0.0185 nM.

B4: TIGIT-006-H3L3 (antibody, V domains shown)
VH: EVQLQESGPGLVKPSETLSLTCAVSGYSMTSDYWNWIRQPPGKKLEWIGYISYSGRTYYNPSLKSRVTISRDTSKNQFSLKLSSVTAADTAVYYCARGDYSNYGGAMYDWGQGTTVTVSS
VL: DIVMTQSPDSLAVSLGERATINCRASQGVSTTIAWYQQKPGQSPKLLIYSASYRYTGVPRFSGSGSGTDFTLTISSLQAEDVAVYYCQQYYSSPFTFGGGTKVEIK
notes: Humanized anti-TIGIT antibody
For the molecule B4, the EC50 in experiment [1] was determined as 6.29 nM; in experiment [2], 0.0317 nM; in experiment [6], 0.779 nM; in experiment [7], 0.0095 nM. The molecule also came in with a Kd in experiment [3] of 0.482 nM. In experiment [3], this molecule gave a dissociation rate constant (koff) of 0.000176 s⁻¹. In experiment [3], this molecule showed a kon of 365000 M⁻¹ s⁻¹. The “Fold change vs chimeric antibodies (KD)” value in experiment [4] is 6.23 fold. This molecule yielded a 50% inhibitory concentration (IC50) in experiment [5] of 0.681 nM.

The values are drawn from patent US20240343803A1 (SHANDONG SIMCERE BIOPHARMACEUTICAL, published 2024).
